Settings in all cases: both partners purified
The target of test [1] is T1, S65-phosphorylated ubiquitin (human, UniProt P0CG48 1-76, phosphoserine at 65).
T1 construct: ubiquitin, human; the cut product of the ubiquitin precursor; phosphorylated at S65 by PINK1; One chemical species that exchanges slowly between two conformations, pUbRL and pUbRT; The printed KD, kon and koff are defined for the pUbRL state; 15N-labelled or unlabelled, depending on the experiment; also called pUb; pUbRL (C-terminally relaxed conformation); source: E. coli BL21 star, purified; …
The experiment in a line: NMR CPMG relaxation dispersion; 15N-labeled Ubqln2-UBA 300 uM with 32 uM unlabeled pUb (~10% saturation); 20 mM HEPES, 150 mM NaCl, pH 7.4; two magnetic fields, global fit; kon and koff calculated from kex and the KD.

Test [2] deals with T2, Human ubiquitin (unmodified) (human, UniProt P0CG48 1-76).
T2 construct: ubiquitin, human; the cut product of the ubiquitin precursor; cloned into pET11a; 15N-labelled in the NMR titrations; also called unmodified Ub; source: E. coli BL21 star, purified (Sepharose SP, Sephacryl S100)
In words: NMR titration; 1H-15N HSQC; 100 uM 15N-labeled Ub or pUb titrated with unlabeled UBA (22.7 to 340.4 uM); 20 mM HEPES, 150 mM NaCl, pH 7.4, 25 C; CSPs of pUb fitted with the revised model of coupled pUbRL/pUbRT equilibria (KD is for pUbRL), CSPs of Ub with a simple one-site model.

In test [3] the target is T1, S65-phosphorylated ubiquitin. The description is as above.
The target is the same in test [4]. In words: NMR CPMG relaxation dispersion; 15N-labeled Ubqln2-UBA 300 uM with 228 uM unlabeled pUb (~50% saturation); 20 mM HEPES, 150 mM NaCl, pH 7.4; two magnetic fields, global fit; kon and koff calculated from kex and the KD.

B1: Human Ubqln2-UBA (residues 578 to 621) (domain or fragment, UniProt Q9UHD9 578-621, looked up)
chain: PEVRFQQQLEQLNAMGFLNREANLQALIATGGDINAAIERLLGS
notes: Ubiquilin-2 (Ubqln2), human, UBA domain, residues 578 to 621; synthetic gene with optimized codons in pET11a; 15N- or 15N/13C-labelled in some experiments; also called UBA domain from Ubqln2; Ubiqulin-2 UBA; source: E. coli BL21 (DE3), purified (Ni-NTA, Sephacryl S100; TEV cleavage, second Ni-NTA, Sephacryl S100); not shown: thioredoxin, N-terminal, cleaved; His6, N-terminal, cleaved
In general, koff refers to a measure of how fast the partners let go of each other. The term kon denotes the second-order rate constant of association. A word on the Kd: it is the free concentration of one partner at which half of the binding sites on the other are occupied at equilibrium, for simple one-to-one binding. Turning to B1, the values for the koff in test [1] and in test [4] were 293 ± 27.5 s⁻¹ and 678 ± 61 s⁻¹, respectively. For the same molecule, the kon was 6.8e+06 ± 600000 M⁻¹ s⁻¹ in test [1] and 1.56e+07 ± 1.4e+06 M⁻¹ s⁻¹ in test [4]. The Kd in test [2] amounted to 33 ± 3.7 µM; in test [3] it was 43.3 ± 3.6 µM.

B2: Human Rad23A-UBA2 (residues 315 to 363) (domain or fragment)
chain: not shown
notes: UV excision repair protein Rad23A, human, second UBA domain (UBA2), residues 315 to 363; synthetic gene with optimized codons in pET11a; 15N-labelled in the CPMG experiment; also called Rad23-UBA2; second UBA domain (UBA2) from Rad23A; source: E. coli BL21 (DE3), purified (Ni-NTA, Sephacryl S100; TEV cleavage, second Ni-NTA, Sephacryl S100); not shown: thioredoxin, N-terminal, cleaved; His6, …
B2: the Kd in test [2] amounted to 356 ± 56 µM; in test [3], 404 ± 38.8 µM.

Source of the values: article PMC8301994, “Kinetic Constraints in the Specific Interaction between Phosphorylated Ubiquitin and Proteasomal Shuttle Factors” (Biomolecules, 2021).
